From PMC6304784

Legend:
[1] = molecular target: N-terminally GFP-tagged full-length wild-type MyD88 (human) (UniProt Q99836); test: fluorescence correlation spectroscopy (FCS); GFP-tagged protein in the cell-free expression mixture; single diffusing species model; hydrodynamic radius normalised to sfGFP
[2] = molecular target: mCherry-tagged full-length wild-type MyD88 (human) (UniProt Q99836); test: two-colour single-particle coincidence spectroscopy (seeding assay); mCherry-tagged full-length MyD88 filaments spun down and sonicated ('seeds') added to GFP-tagged full-length MyD88 expressed over a range of concentrations (10 nM and above); 488 nm and 561 nm lasers; traces of 180 s
Chain of mCherry-tagged full-length wild-type MyD88 (human) (Q99836 whole entry): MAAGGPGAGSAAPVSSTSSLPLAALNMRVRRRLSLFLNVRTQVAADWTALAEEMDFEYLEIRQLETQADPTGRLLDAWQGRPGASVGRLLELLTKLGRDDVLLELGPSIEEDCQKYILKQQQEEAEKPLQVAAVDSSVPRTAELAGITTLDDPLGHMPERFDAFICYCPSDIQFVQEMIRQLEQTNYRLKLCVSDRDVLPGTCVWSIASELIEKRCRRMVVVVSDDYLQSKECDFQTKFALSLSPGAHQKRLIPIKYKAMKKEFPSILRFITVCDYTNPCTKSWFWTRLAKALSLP

[3] = molecular target: N-terminally GFP-tagged full-length wild-type MyD88 (human) (UniProt Q99836); test: single-molecule fluorescence fluctuation spectroscopy (brightness B parameter, time-traces, intensity histograms); GFP-tagged protein freely diffusing in the cell-free expression mixture on a confocal microscope, 488-nm laser; dilution series of the DNA template giving 0 to about 320 nM protein; mutants compared at 150 nM; samples diluted 10 times in buffer A

N-terminally GFP-tagged full-length wild-type MyD88 (from UniProt Q99836 1-296) (natural protein)
stoichiometry N (monomeric units) [1]: > 100
critical concentration for polymerisation in the presence of seeds [2]: 10 nM
critical concentration for aggregation (Cc) [3]: 150 nM
stoichiometry N [3]: > 100 proteins
